Data as given in patent publication US20240409645A1 (DUALYX, published 2024).

T1: human IL-2 receptor (IL-2Rα/IL-2Rβ/γc) (human, UniProt P01589 22-272; P14784 27-551; P31785 23-369)
T1 sequence 1: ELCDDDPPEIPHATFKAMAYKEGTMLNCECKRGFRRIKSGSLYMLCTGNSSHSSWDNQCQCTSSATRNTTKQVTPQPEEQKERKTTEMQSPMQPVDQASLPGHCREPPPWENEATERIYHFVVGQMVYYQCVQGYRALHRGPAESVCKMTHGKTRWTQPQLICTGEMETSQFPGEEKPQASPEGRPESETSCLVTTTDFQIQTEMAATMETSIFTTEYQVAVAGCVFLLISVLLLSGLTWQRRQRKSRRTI
T1 sequence 2: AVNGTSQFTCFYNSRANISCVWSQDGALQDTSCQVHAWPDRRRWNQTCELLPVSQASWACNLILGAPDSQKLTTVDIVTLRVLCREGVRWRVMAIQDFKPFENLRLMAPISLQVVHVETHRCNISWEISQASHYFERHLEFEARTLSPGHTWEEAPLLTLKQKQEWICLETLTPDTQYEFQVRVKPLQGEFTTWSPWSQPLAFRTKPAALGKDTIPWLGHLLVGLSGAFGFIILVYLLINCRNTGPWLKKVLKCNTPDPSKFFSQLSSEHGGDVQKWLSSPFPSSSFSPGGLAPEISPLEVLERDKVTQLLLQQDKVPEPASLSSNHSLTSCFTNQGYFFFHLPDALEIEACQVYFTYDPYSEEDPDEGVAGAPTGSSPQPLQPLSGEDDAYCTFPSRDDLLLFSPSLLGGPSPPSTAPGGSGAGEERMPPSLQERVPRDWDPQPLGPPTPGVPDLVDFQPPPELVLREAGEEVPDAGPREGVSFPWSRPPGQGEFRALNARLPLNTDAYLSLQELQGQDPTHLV
T1 sequence 3: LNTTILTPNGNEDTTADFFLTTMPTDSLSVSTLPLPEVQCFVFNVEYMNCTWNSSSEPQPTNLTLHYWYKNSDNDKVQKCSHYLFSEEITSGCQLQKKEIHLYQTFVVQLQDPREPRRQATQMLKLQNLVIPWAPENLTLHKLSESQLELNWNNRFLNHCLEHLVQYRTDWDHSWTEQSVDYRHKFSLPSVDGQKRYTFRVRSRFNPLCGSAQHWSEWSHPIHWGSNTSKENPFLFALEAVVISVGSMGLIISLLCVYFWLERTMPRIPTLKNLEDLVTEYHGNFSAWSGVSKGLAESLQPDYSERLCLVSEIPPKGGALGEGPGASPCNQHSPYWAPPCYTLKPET

B1: DC00080 (other)
chain 1: QVQLVESGGGLVQAGGSLRLSCAASGGTFRTRNMGWFRRAPGKEREFVAAVSWNVDNKLYADSVKGRFTISRDNGRNMVYLQMNSLKPEDTAVYYCAADNIPLSSDMRPTATEYDYWGQGTQVTVSSDKTHTCPPCPAPEAAGGPSVFLFPPKPKDTLMISRTPEVTCVVVDVSHEDPEVKFNWYVDGVEVHNAKTKPREEQYNSTYRVVSVLTVLHQDWLNGKEYKCKVSNKALGAPIEKTISKAKGQPREPQVYTLPPSRDELTKNQVSLTCLVKGFYPSDIAVEWESNGQPENNYKTTPPVLDSDGSFLLYSKLTVDKSRWQQGNVFSCSVMHEALHNHYTQKSLSLSPGK
chain 2: EVQLVESGGGLVQTGGSLRLSCAASGGTFSRDAMAWFRQVPGKEREFVALISWSGATTNYADSVKGRFAISRDNGKNTVYLQMNRLKPADTAIYYCAADRRPMGSRSYFEPTEYDDWGQGTQVTVSSGGGGSGGGGSGGGGSQVQLVESGGGLVQPGGSLRLSCATSGFTFRNNFMSWVRQAPGKGLEWVSTISYGGESTTYAESVKGRFTISRDNAKNTLYLQMNNLKPEDTAVYYCAKATSYDSIRSGSRGQGTQVTVSSGGGGSGGGGSGGGGSQVQLVESGGGLVQAGGSLTLSCAAPGRTFGTDVVGWFRQAPGKEREFVASISRSGDGIYYDDSVKGRFTISRNNAWNTVNLQMNSLKVEDTAVYYCAAGDGWSTYDYWGQGTQVTVSSGGGGSGGGGSGGGGSDKTHTCPPCPAPEAAGGPSVFLFPPKPKDTLMISRTPEVTCVVVDVSHEDPEVKFNWYVDGVEVHNAKTKPREEQYNSTYRVVSVLTVLHQDWLNGKEYKCKVSNKALGAPIEKTISKAKGQPREPQVYTLPPSRDELTKNQVSLTCLVKGFYPSDIAVEWESNGQPENNYKTTPPVLDSDGSFFLYSRLTVDKSRWQQGNVFSCSVMHEALHNHYTQKSLSLSPGK
B2: DC00081 (other)
chain 1: B1 chain 1
chain 2: QVQLVESGGGLVQPGGSLRLSCATSGFTFRNNFMSWVRQAPGKGLEWVSTISYGGESTTYAESVKGRFTISRDNAKNTLYLQMNNLKPEDTAVYYCAKATSYDSIRSGSRGQGTQVTVSSGGGGSGGGGSGGGGSQVQLVESGGGLVQAGGSLTLSCAAPGRTFGTDVVGWFRQAPGKEREFVASISRSGDGIYYDDSVKGRFTISRNNAWNTVNLQMNSLKVEDTAVYYCAAGDGWSTYDYWGQGTQVTVSSGGGGSGGGGSGGGGSEVQLVESGGGLVQTGGSLRLSCAASGGTFSRDAMAWFRQVPGKEREFVALISWSGATTNYADSVKGRFAISRDNGKNTVYLQMNRLKPADTAIYYCAADRRPMGSRSYFEPTEYDDWGQGTQVTVSSGGGGSGGGGSGGGGSDKTHTCPPCPAPEAAGGPSVFLFPPKPKDTLMISRTPEVTCVVVDVSHEDPEVKFNWYVDGVEVHNAKTKPREEQYNSTYRVVSVLTVLHQDWLNGKEYKCKVSNKALGAPIEKTISKAKGQPREPQVYTLPPSRDELTKNQVSLTCLVKGFYPSDIAVEWESNGQPENNYKTTPPVLDSDGSFFLYSRLTVDKSRWQQGNVFSCSVMHEALHNHYTQKSLSLSPGK
B3: DC00082 (other)
chain 1: B1 chain 1
chain 2: QVQLVESGGGLVQPGGSLRLSCATSGFTFRNNFMSWVRQAPGKGLEWVSTISYGGESTTYAESVKGRFTISRDNAKNTLYLQMNNLKPEDTAVYYCAKATSYDSIRSGSRGQGTQVTVSSGGGGSGGGGSGGGGSEVQLVESGGGLVQTGGSLRLSCAASGGTFSRDAMAWFRQVPGKEREFVALISWSGATTNYADSVKGRFAISRDNGKNTVYLQMNRLKPADTAIYYCAADRRPMGSRSYFEPTEYDDWGQGTQVTVSSGGGGSGGGGSGGGGSQVQLVESGGGLVQAGGSLTLSCAAPGRTFGTDVVGWFRQAPGKEREFVASISRSGDGIYYDDSVKGRFTISRNNAWNTVNLQMNSLKVEDTAVYYCAAGDGWSTYDYWGQGTQVTVSSGGGGSGGGGSGGGGSDKTHTCPPCPAPEAAGGPSVFLFPPKPKDTLMISRTPEVTCVVVDVSHEDPEVKFNWYVDGVEVHNAKTKPREEQYNSTYRVVSVLTVLHQDWLNGKEYKCKVSNKALGAPIEKTISKAKGQPREPQVYTLPPSRDELTKNQVSLTCLVKGFYPSDIAVEWESNGQPENNYKTTPPVLDSDGSFFLYSRLTVDKSRWQQGNVFSCSVMHEALHNHYTQKSLSLSPGK
B4: DC00078 (other)
chain 1: QVQLVESGGGLVQAGGSLRLSCAASGIPFDNYAMGWFRQAPGKEREFVAARDLEGIITRYGDSVKGRFTISRGNAKNTVFLQMNSLKPEDTAVYYCAARDGGVVAGSRSSAQYNYWGQGTQVTVSSDKTHTCPPCPAPEAAGGPSVFLFPPKPKDTLMISRTPEVTCVVVDVSHEDPEVKFNWYVDGVEVHNAKTKPREEQYNSTYRVVSVLTVLHQDWLNGKEYKCKVSNKALGAPIEKTISKAKGQPREPQVYTLPPSRDELTKNQVSLTCLVKGFYPSDIAVEWESNGQPENNYKTTPPVLDSDGSFLLYSKLTVDKSRWQQGNVFSCSVMHEALHNHYTQKSLSLSPGK
chain 2: QVQLVESGGGLVQAGGSLTLSCAAPGRTFGTDVVGWFRQAPGKEREFVASISRSGDGIYYDDSVKGRFTISRNNAWNTVNLQMNSLKVEDTAVYYCAAGDGWSTYDYWGQGTQVTVSSGGGGSGGGGSGGGGSEVQLVESGGGLVQTGGSLRLSCAASGGTFSRDAMAWFRQVPGKEREFVALISWSGATTNYADSVKGRFAISRDNGKNTVYLQMNRLKPADTAIYYCAADRRPMGSRSYFEPTEYDDWGQGTQVTVSSGGGGSGGGGSGGGGSQVQLVESGGGLVQPGGSLRLSCATSGFTFRNNFMSWVRQAPGKGLEWVSTISYGGESTTYAESVKGRFTISRDNAKNTLYLQMNNLKPEDTAVYYCAKATSYDSIRSGSRGQGTQVTVSSDKTHTCPPCPAPEAAGGPSVFLFPPKPKDTLMISRTPEVTCVVVDVSHEDPEVKFNWYVDGVEVHNAKTKPREEQYNSTYRVVSVLTVLHQDWLNGKEYKCKVSNKALGAPIEKTISKAKGQPREPQVYTLPPSRDELTKNQVSLTCLVKGFYPSDIAVEWESNGQPENNYKTTPPVLDSDGSFFLYSRLTVDKSRWQQGNVFSCSVMHEALHNHYTQKSLSLSPGK
B5: DC00079 (other)
chain 1: B4 chain 1
chain 2: QVQLVESGGGLVQAGGSLTLSCAAPGRTFGTDVVGWFRQAPGKEREFVASISRSGDGIYYDDSVKGRFTISRNNAWNTVNLQMNSLKVEDTAVYYCAAGDGWSTYDYWGQGTQVTVSSGGGGSGGGGSGGGGSQVQLVESGGGLVQPGGSLRLSCATSGFTFRNNFMSWVRQAPGKGLEWVSTISYGGESTTYAESVKGRFTISRDNAKNTLYLQMNNLKPEDTAVYYCAKATSYDSIRSGSRGQGTQVTVSSGGGGSGGGGSGGGGSEVQLVESGGGLVQTGGSLRLSCAASGGTFSRDAMAWFRQVPGKEREFVALISWSGATTNYADSVKGRFAISRDNGKNTVYLQMNRLKPADTAIYYCAADRRPMGSRSYFEPTEYDDWGQGTQVTVSSGGGGSGGGGSGGGGSDKTHTCPPCPAPEAAGGPSVFLFPPKPKDTLMISRTPEVTCVVVDVSHEDPEVKFNWYVDGVEVHNAKTKPREEQYNSTYRVVSVLTVLHQDWLNGKEYKCKVSNKALGAPIEKTISKAKGQPREPQVYTLPPSRDELTKNQVSLTCLVKGFYPSDIAVEWESNGQPENNYKTTPPVLDSDGSFFLYSRLTVDKSRWQQGNVFSCSVMHEALHNHYTQKSLSLSPGK

Target: T1, human IL-2 receptor (IL-2Rα/IL-2Rβ/γc)
Assay: cell-based or functional assay

| Binder | EC50 (nM) pSTAT5, NK, human PBMCs | EC50 (nM) pSTAT5, Treg, human PBMCs | Fold Max signal (% pSTAT5+) Treg/NK | Max signal (% pSTAT5+), NK | Max signal (% pSTAT5+), Treg | fold EC50 NK/Treg |
| --- | --- | --- | --- | --- | --- | --- |
| B1 | 0.00648 nM | < 0.1 pM | 4 fold | 4.42 % pSTAT5+ | 17.8 % pSTAT5+ | > 64.8 fold |
| B2 | 0.194 nM | < 0.1 pM | 5 fold | 13.5 % pSTAT5+ | 60.9 % pSTAT5+ | > 1940 fold |
| B3 | 0.0227 nM | 0.848 pM | 2 fold | 2.11 % pSTAT5+ | 4.57 % pSTAT5+ | 27 fold |
| B4 | 0.195 nM | < 0.1 pM | 5 fold | 14.1 % pSTAT5+ | 67.8 % pSTAT5+ | > 1950 fold |
| B5 | 0.0993 nM | < 0.1 pM | 8 fold | 7.35 % pSTAT5+ | 62.4 % pSTAT5+ | > 994 fold |
